A short description of this data set: label from the status in PepcDB records.

Turning to “MASRSASQASDALSQHGCPFSVRAKAFHGGRCMHELIGDITLSILFAWLLGLAAHFFRQPLILAYLIGGFVIGPFGLGWVKSENSISVISELGLIFMLFMIGLEIDLKKIIRAGPVILVAAGGQIAGGVLLGLAFFVGIGLSLGGGHFDALYLTVACALSSTVIIVKVLYEKRELDTLPGRITLGILVLQDIFAILFLAVQPSLADLQISVLLLSIARVVALVATALALSRYVLPWLFHRIARTPELVLLGALAWCFLIGEIAERLHLSREMGALVAGVSLSTFPYALDVTAKVTTLRDFFITLFFVALGMTIPIPNGSVIGLALAIAVFTLASRLLTTFLPLYLMKQGLRASLLPALNLAQISEFSLVVIQTGVAAGHIGTQTASAASFAFVLLAVLSTFVIMRSDPITRRAIGTLTKFGFRDLGQQQSGAEAAAEAGHGAVHRIVILGFFRAASALVSEIEQHTPELLKQISVIDFNPMVYRTLTERGMHVIYGDISNVDTLLHAGVAKAEIIILSVPDSLLKGATNERLVRHVRALNPNAQIVATADLLADVEAMYQAGADYVTVTRLADARELFEVIEAADNGLLSDKRAALDARLAERREVLP”, the protein production result was “failed”.
Under “MASSSSSSEHKVFLSFRREDTGRTFVSHLYRSLDQKEIRTYKFENQQAGDGKRISSEVKQAINESRIAVVVISENYVSSVLCLDVLAKIIERLPLIKIETVFYEVDPGDLTRPTGKFADDFRRHEARENRRTVNRWRDALDQLVSITNSNFCSRNWEDDSKMIDDLIIRLINIYFSKYYTPDVDIIAETTVGLDASVLGLMTDIDMKYKLNSLSGSVESGFGLERYALEATSVMDDMSNESPSPTSDDSNGLVGMYRHKKAVYGLLDLESKNQVRTIGIWGFQGVGKTTLAECVFDDISSHFQHYCFLTNANKIYQNRISPSLLKHLTRRRSSEDIFDAIKPSLVNRKVLFVVDGVDATYNEQFNDAMKVTRWLGPGSRIIMTSRFKSSLKFGGAKYEMECLRYEEALQLFSLYAFKKTYPLIGFELFSIRAVHFAGRLPLSLKVLGSFLYDKDEESWKRTLHKLEASQDNDRRYVSNYIGAGEYLPRRQIELEQYVSPDEEEYSPSYIMSL” stands “failed”; under “MASTTRPAPTVGFDLDMTLIDSRPGIRACYVELSARTGTYVDADLAVTRLGPPLAEELANWFPAEEIEAVADLYREIYPAYAIEPTLALPGAREAVTAVRGAGGRAVVVTAKYEPNAKLHLAHLGIEPDAVIGGLWAEQKAVALREHDADVYVGDHVGDVRGARAAGARSVAVASGPCDAGELRAAGADVVLADLTAFPEWLAAYRDGEGDAEGLDAARA”, “failed”; under “MASTVDSNFFSSVPALHSNLGLLSPDQIELAKILLENGQSHLFQQWPELGVDDKEKLAFFDQIARLNSSYPGGLAAYIKTAKELLADSKVGKNPYDGFSPSVPSGENLTFGTDNFIEMEKRGVVEARNAAFVLVAGGLGERLGYNGIKVALPRETTTGTCFLQHYIESILALQEASNKIDSDGSERDIPFIIMTSDDTHSRTLDLLELNSYFGMKPTQVHLLKQEKVACLDDNDARLALDPHNKYSIQTKPHGHGDVHSLLYSSGLLHKWLEAGLKWVLFFQDTNGLLFNAIPASLGVSATKQYHVNSLAVPRKAKEAIGGISKLTHVDGRSMVINVEYNQLDPLLRASGFPDGDVNCETGFSPFPGNINQLILELGPYKDELQKTGGAIKEFVNPKYKDSTKTAFKSSTRLECMMQDYPKTLPPTARVGFTVMDIWLAYAPVKNNPEDAAKVPKGNPYHSATSGEMAIYRANSLILQKAGVKVEEPVKQVLNGQEVEVWSRITWKPKWGMIFSDIKKKVSGNCEVSQRSTMAIKGRNVFIKDLSLDGALIVDSIDDAEVKLGGLIKNNGWTMESVDYKDTSVPEEIRIRGFRFNKVEQLEKKLTQPGKFSVED”, “failed”.
Under “MASYHARQRDPLLDQNMQAMLERRGRELLGIGLLIVAFLFMLILGTYSPEDPGWMVATDEPAQNALGRIGAAISSTLMIIAGKGSWGLPIVAGAWGARFLLHRGEERALGRIVFAVIAIALGSIYAATHVPGSEWTHSFGLGGLFGDTVLGALLEILPLPAAYGLKLLSLLVGGGLVAMGLFVCGFDLRELRQVTQFLLVGLVVTYNAALQLAGRGSVQAAQLMQEKIRAHREGRAAVDAAAVRGEARAEAMPRPRSRFREPEPEPEPAPRMGFLSRLRAQAPEDDPEPVIEEAAWGRPATLRADTTRPAALRSEGLRAEPRHVEPAPAPAQPRTGLLARMPQIIRRVTDPEAELVEHALSDAAANAEGPTEDRIKARINDVIRSRVRQSTGPLSPIAAAIARREPPMARRRSGPAPMVATRRAPMELPPEPPVVAGAGEKIRFASGMVASRMPGAATARLAVSALEADAAPAHAPRLMAEAYDAYEACETGEPILTAREQLAYADEDEAAAYDEAYAAEEEVESYAAEEAAWLPHEDFDDSTDWAPEPAAPAAPMMAPAMAPKPAAAPAARAPAVRPPEAQPKPRFEEQETHYELPPLSLLACPSTIVRNTLSVDALKENARMLESVLEDYGVKGEIVDAQAGPVVTLYELEPAPGLKASRVIGLADDIARSMSALSARVSTVPGRTVIGIELPNVSREKVILREILAARDFGDSSMRLPLALGKDIAGRPVVANLAKMPHLLIAGTTGSGKSVAINTMILSLLYKLTPEECRLIMIDPKMLELSVYDGIPHLLSPVVTDPKKAVVALKWVVGEMEERYRKMSKLGVRNIEGYNGRVSEALEKGEMFKRTIQTGFDEDTGEPVFETEDLQPVRLPFIVVVVDEMADLMMVAGKEIEACIQRLAQMARASGIHLIMATQRPSVDVITGTIKANFPTRISFQVTSKIDSRTILGEQGAEQLLGMGDMLYMAGGAKITRIHGPFVSDEEVEEIVNHLKSFGPPKYMSGVVEGPEDDRADDIDAVLGLGGNTDSEDALYDQAVAIVAKDRKCSTSYIQRKLGIGYNKAARLVEQMEEQGVVTAANHVGKREILLPEQ” stands “failed”; under “MATAASNHYSLLTSSASIVHAEPPGGMQQGAGGYREAQSLVQGDYGALQSNGHPLSHAHQWITALSHGGGGGGGGGGGGGGGGGGGGGDGSPWSTSPLGQPDIKPSVVVQQGGRGDELHGPGALQQQHQQQQQQQQQQQQQQQQQQQQQRPPHLVHHAANHHPGPGAWRSAAAAAHLPPSMGASNGGLLYSQPSFTVNGMLGAGGQSAGLHHHGLRDAHDEPHHADHHPHPHSHPHQQPPPPPPPQGPPGHPGAHHDPHSDEDTPTSDDLEQFAKQFKQRRIKLGFTQADVGLALGTLYGNVFSQTTICRFEALQLSFKNMCKLKPLLNKWLEEADSSSGSPTSIDKIAAQGRKRKKRTSIEVSVKGALESHFLKCPKPSAQEITSLADSLQLEKEVVRVWFCNRRQKEKRMTPPGGTLPGAEDVYGGSRDTPPHHGVQTPVQ”, “failed”; under “MATANEHLVAWLRDAHAMEEQAITMLTSQSSRLENYPELKTRIDRHLQETKDQAAMLERCLERLDGGTSSIKDISGKIVAFGQGLSGLFVSDEVVKGTLASYTFEHMEIASYRILIAAAEQAGDQETKRVCESILQQEIAMAEWLAQNAGEITRKFLERDQRDVTAKH”, “not failed”.
Under “MATAPRPLREQYLHFQPISTRWHDNDIYGHVNNVTYYAFFDTAVNTYLIERGGLDIQGGEVIGLVVSSSCDYFAPVAFPQRIEMGLRVARLGNSSVQYELALFLEGQREACAAGRFVHVFVERRSSRPVAIPQELRDALAALQSSAQ” stands “not failed”.
“MATATTTKTKTKATKKTRAKKATKKRATPKKNLVIVESPAKAKTIEKYLGRNYKVVASVGHIRDLKKSSMSIDFENNYEPQYINIRGKGPLIKELKKEAKKAKKVFLASDPDREGEAISWHLSHILGLEPEDKNRVVFNEITKDAVKNAFAEPRAIDMDLVDAQQARRVLDRIVGYSISPLLWKKVKKGLSAGRVQSVALKLIIDRENEIKAFKPEEYWTIDGAFKKGAKKFQASFYGLDGKKLKLNNNDDVKDVLSRIISDDFNVDKVEKKERRRNAPLPYTTSSLQQDAANKINFRTRKTMMVAQQLYEGINLGSGAQGLITYMRTDSTRISPVAQNQAAEFITERYGSKYSKHGSKVKNSSAAQDAHEAIRPSNVFQTPESIAKYLDKDQLKLYTLIWNRFVASQMTAAVFDTMKVTLSQNGVIFTANGSQIKFDGYMAVYNDSDKNKMLPEMAEGDTIKKVVTTPEQHFTQTPARYSEATLIKTLEENGVGRPSTYAPTLDVIQRRYYVKLVAKRFEPTELGEIVNSLIVEFFPDIVDVKFTAEMEAKLDKVEIGKEQWQKVIDEFFKPFQKELEKAEEGIEKIQIKDEPAGFDCDLCGHPMVIKLGRYGKFYACSNFPDCHNTKAITKEIGVTCPTCGQGQVIERKTKRNRVFYGCDRYPDCEFTSWDIPIGRNCPKSGDYLVEKKVRGGGKQVICSNEECDYKESVIK”: the protein production result is listed as “failed”.
As to “MATDAPPPSKEEPPSQEEHRLPSAEEFSEVQQSAEFAELRRSFRSFAFPLTVAFVAWYLLYVLLSNYAGGFMGTKLFGNINVAFVFGIAQFVTTFLIAWWYSRHAAAKLDPKAEAIKTRMEGGA”, the protein production result is “failed”.
As to “MATDTTVQLRAGWQGRFYEDFAVGDVYKHPYGRTVTETDNVWFTNLTMNANPMHFNAAYASGTEFDERLVNGLFVIALSVGMSVVDVSANATANLGYDDIQHHAPVFHGDTLFAESEVLSKRESESRPHVGMVTTELRTYTQDGELVLSLERTPMVRKRGLEHHHHHH”, the protein production result is given as “not failed”.
For “MATESSESEEEGKISGGNYKLIIDDDLREMGKNAAWSVSSYGLQPHLINIQFQKKVKLQLVVLYVDFKLDESYTPSKISIRAGDGFHNLKEIKSVELVKPTGWVCLSLSGTDPRETFCQESR”, the protein production entry was “failed”.
For “MATISAKLVKELREKTGAGMMDCKKALTETDGDIDKAIDYLREKGIAKAAKKADRIAAEGLVHVETKGNDAVIVEINSETDFVARNEGFQELVKEIANQVLDTKAETVEALMETTLPNGKSVDERIKEAISTIGEKLSVRRFAIRTKTDNDAFGAYLHMGGRIGVLTVVEGSTDEEAARDVAMHIAAINPKYVSSEQVSEEEINHEREVLKQQALNEGKPENIVEKMVEGRLRKYLQEICAVDQDFVKNPDVTVEAFLKTKGGKLVDFVRYEVGEGMEKREENFADEVKGQMK”, the protein production result is “failed”.
Take “MATLKVSDSVPAPSDDAEQLRTAFEGWGTNEDLIISILAHRSAEQRKVIRQAYHETYGEDLLKTLDKELSNDFERAILLWTLEPGERDALLANEATKRWTSSNQVLMEVACTRTSTQLLHARQAYHARYKKSLEEDVAHHTTGDFRKLLVSLVTSYRYEGDEVNMTLAKQEAKLVHEKIKDKHYNDEDVIRILSTRSKAQINATFNRYQDDHGEEILKSLEEGDDDDKFLALLRSTIQCLTRPELYFVDVLRSAINKTGTDEGALTRIVTTRAEIDLKVIGEEYQRRNSIPLEKAITKDTRGDYEKMLVALLGEDDA”: the protein production result is on record as “not failed”.
For “MATNLKSTAKLVKPIQYDEVIEVERIFADPAFIEQHRQRILASFKDAKESALYHELTHIVIKDNLFSCAMNAIVGYFEFNIDEAELKNVMEGLKRDVIQGAEDNTVQAIAEKIIKKALVFNHLQKEWKVEITDEVVKNVISLYYEKTNQSVREYLDDKQKFEGVRTALLEERMVLETINHFKFHFNLTGQLPN”, the protein production entry was “not failed”.
Under “MATPFWYNAALKVLKPVYRWRIKKRAENEMRYQQECRERFGPFQQPQNRHALWFHAVSVGETNAAQPLIEYYLKLGHPVLVTNTTKTGQARAKSLFLKSPYLELFQAVYLPVDQIFLLKQFFELYQPKLLALVETELWPNLIDQAQHYGVPTFLINARLSEKSAQGYARVSALSNAMLSRLTGLLAQDQSTQQRFIGLGLAREKAQVVGNIKFDIDVPLLFVEQARRLQQQWQLAGRKIMVLASTHAPEEQQLLTALKTHLMADPDLLCIVVPRHPERFDEVFQICQNLQLDTARRSLEQPIQPETQVYLADSMGELWLWYALAQTAFVGGSLNEPGGGHNILEPMALKIPVVIGPRYFNFQTIVDEFRETEAIDIVQDATQAVRQLLHYVSTPNSADQIVDHAQSILQRNKGSLARHIHVLDQYLS” stands “failed”; under “MATPQDKLHTVRLFGTVAADGLTMLDGAPGVRFRLEDKDNTSKTVWVLYKGAVPDTFKPGVEVIIEGGLAPGEDTFKARTLMTKCPLEHHHHHH”, “not failed”.

These data come from a protein production outcome set (Wang et al. 2014).
